Four molecules from patent publication US20180193477A1 (Zymeworks, published 2018) can be followed below.

The target in test [1] is T1, Recombinant CD3epsilon/delta Fc fusion protein (Sino Biological) (UniProt P07766 23-126; P04234 22-105).
T1 construct: Bought reagent; also called recombinant CD3 fusion protein; CD3 antigen; not shown: Fc part of the bought fusion protein; not described
The test is described as follows: SPR, BioRad ProteOn XPR36, 25 C, anti-Fc capture chip, Equilibrium Fit model, mean of three runs. (Surface plasmon resonance follows binding to a sensor surface in real time, without labels.)

Test [2] concerns the target T1, Recombinant CD3epsilon/delta Fc fusion …. The test is described as follows: SPR (summary of Example 6).
Test [3] concerns the target T2, CD3 on human CD3+ Jurkat T cells (human, UniProt P07766 23-207).
T2 construct: whole, on cells; CD3 is a complex of several chains on the cell; also called CD3 epsilon; CD3e
In words: whole cell FACS binding on Jurkat cells, apparent affinity. (In general: A flow cytometer gives signals particle by particle.)

T1 sequence (P07766 23-126, stated change not applied, chain 1 of 2): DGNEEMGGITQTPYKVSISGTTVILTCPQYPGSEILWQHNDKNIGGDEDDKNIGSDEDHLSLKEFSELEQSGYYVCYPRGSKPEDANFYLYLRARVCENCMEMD
T1 sequence (P04234 22-105, stated change not applied, chain 2 of 2): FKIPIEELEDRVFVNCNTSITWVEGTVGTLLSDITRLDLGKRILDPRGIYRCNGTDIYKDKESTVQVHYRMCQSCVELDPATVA
T2 sequence (P07766 23-207): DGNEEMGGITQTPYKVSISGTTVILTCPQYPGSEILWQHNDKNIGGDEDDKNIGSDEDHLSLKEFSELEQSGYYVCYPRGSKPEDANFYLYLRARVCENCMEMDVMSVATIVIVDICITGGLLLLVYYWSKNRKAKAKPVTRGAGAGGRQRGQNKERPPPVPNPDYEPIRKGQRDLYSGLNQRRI

B1: v15193, humanized bispecific anti-CD3-CD19 antigen-binding construct (humanized HD37 Fab / humanized OKT3 scFv hVH1/hVL2) (bispecific antibody, human IgG1, kappa, L234A L235A)
heavy: not shown
chain: QVQLVQSGGGVVQPGRSLRLSCKASGYTFTRYTMHWVRQAPGKGLEWIGYINPSRGYTNYNQKVKGRFTISTDKSKNTAYLQMDSLRAEDTGVYFCARYYDDHYSLDYWGQGTLVTVSSVEGGSGGSGGSGGSGGVDDIQMTQSPSSLSASVGDRVTITCSASSSVSYMNWYQQKPGKAPKRLIYDTSKLASGVPSRFSGSGSGTDYTLTISSLQPEDAATYYCQQWSSNPFTFGQGTKLEIKAAEPKSSDKTHTCPPCPAPEAAGGPSVFLFPPKPKDTLMISRTPEVTCVVVSVSHEDPEVKFNWYVDGVEVHNAKTKPREEQYNSTYRVVSVLTVLHQDWLNGKEYKCKVSNKALPAPIEKTISKAKGQPREPQVYVLPPSRDELTKNQVSLLCLVKGFYPSDIAVEWESNGQPENNYLTWPPVLDSDGSFFLYSKLTVDKSRWQQGNVFSCSVMHEALHNHYTQKSLSLSPG
light: DIQLTQSPSSLSASVGDRATITCRASQSVDYEGDSYLNWYQQKPGKAPKLLIYDASNLVSGIPSRFSGSGSGTDFTLTISSVQPEDAATYYCQQSTEDPWTFGCGTKLEIKRTVAAPSVFIFPPSDEQLKSGTASVVCLLNNFYPREAKVQWKVDNALQSGNSQESVTEQDSKDSTYSLSSTLTLSKADYEKHKVYACEVTHQGLSSPVTKSFNRGEC
notes: also called variant 15193
For the molecule B1, the Kd in test [1] worked out at 370 nM.

B2: v15192, humanized bispecific anti-CD3-CD19 antigen-binding construct (humanized HD37 Fab / humanized OKT3 scFv hVH1/hVL1) (bispecific antibody, human IgG1, kappa, L234A L235A)
heavy: not shown
chain: QVQLVQSGGGVVQPGRSLRLSCKASGYTFTRYTMHWVRQAPGKGLEWIGYINPSRGYTNYNQKVKGRFTISTDKSKNTAYLQMDSLRAEDTGVYFCARYYDDHYSLDYWGQGTLVTVSSVEGGSGGSGGSGGSGGVDDIQMTQSPSSLSASVGDRVTITCSASSSVSYMNWYQQKPGKAPKRWIYDTSKLASGVPSRFSGSGSGTDYTLTISSLQPEDAATYYCQQWSSNPFTFGQGTKLEIKAAEPKSSDKTHTCPPCPAPEAAGGPSVFLFPPKPKDTLMISRTPEVTCVVVSVSHEDPEVKFNWYVDGVEVHNAKTKPREEQYNSTYRVVSVLTVLHQDWLNGKEYKCKVSNKALPAPIEKTISKAKGQPREPQVYVLPPSRDELTKNQVSLLCLVKGFYPSDIAVEWESNGQPENNYLTWPPVLDSDGSFFLYSKLTVDKSRWQQGNVFSCSVMHEALHNHYTQKSLSLSPG
light: DIQLTQSPSSLSASVGDRATITCRASQSVDYEGDSYLNWYQQKPGKAPKLLIYDASNLVSGIPSRFSGSGSGTDFTLTISSVQPEDAATYYCQQSTEDPWTFGCGTKLEIKRTVAAPSVFIFPPSDEQLKSGTASVVCLLNNFYPREAKVQWKVDNALQSGNSQESVTEQDSKDSTYSLSSTLTLSKADYEKHKVYACEVTHQGLSSPVTKSFNRGEC
notes: also called variant 15192
Consider B2, for which the binding result in test [2] is given as “binds”.

B3: v15195, humanized bispecific anti-CD3-CD19 antigen-binding construct (humanized HD37 Fab / humanized OKT3 scFv hVH2/hVL2) (bispecific antibody, human IgG1, kappa, L234A L235A)
heavy: not shown
chain: QVQLVQSGGGVVQPGRSLRLSCKASGYTFTRYTMHWVRQAPGKGLEWIGYINPSRGYTNYNQKVKGRFTISTDNSKNTAYLQMDSLRAEDTGVYFCARYYDDHYSLDYWGQGTLVTVSSVEGGSGGSGGSGGSGGVDDIQMTQSPSSLSASVGDRVTITCSASSSVSYMNWYQQKPGKAPKRLIYDTSKLASGVPSRFSGSGSGTDYTLTISSLQPEDAATYYCQQWSSNPFTFGQGTKLEIKAAEPKSSDKTHTCPPCPAPEAAGGPSVFLFPPKPKDTLMISRTPEVTCVVVSVSHEDPEVKFNWYVDGVEVHNAKTKPREEQYNSTYRVVSVLTVLHQDWLNGKEYKCKVSNKALPAPIEKTISKAKGQPREPQVYVLPPSRDELTKNQVSLLCLVKGFYPSDIAVEWESNGQPENNYLTWPPVLDSDGSFFLYSKLTVDKSRWQQGNVFSCSVMHEALHNHYTQKSLSLSPG
light: DIQLTQSPSSLSASVGDRATITCRASQSVDYEGDSYLNWYQQKPGKAPKLLIYDASNLVSGIPSRFSGSGSGTDFTLTISSVQPEDAATYYCQQSTEDPWTFGCGTKLEIKRTVAAPSVFIFPPSDEQLKSGTASVVCLLNNFYPREAKVQWKVDNALQSGNSQESVTEQDSKDSTYSLSSTLTLSKADYEKHKVYACEVTHQGLSSPVTKSFNRGEC
notes: Unconjugated construct as used in SPR and whole cell FACS; also called variant v15195
With B3, the Kd turned out to be 44.7 nM in test [3] and 427 nM in test [1].

B4: v15194, humanized bispecific anti-CD3-CD19 antigen-binding construct (humanized HD37 Fab / humanized OKT3 scFv hVH2/hVL1) (bispecific antibody, human IgG1, kappa, L234A L235A)
heavy: not shown
chain: QVQLVQSGGGVVQPGRSLRLSCKASGYTFTRYTMHWVRQAPGKGLEWIGYINPSRGYTNYNQKVKGRFTISTDNSKNTAYLQMDSLRAEDTGVYFCARYYDDHYSLDYWGQGTLVTVSSVEGGSGGSGGSGGSGGVDDIQMTQSPSSLSASVGDRVTITCSASSSVSYMNWYQQKPGKAPKRWIYDTSKLASGVPSRFSGSGSGTDYTLTISSLQPEDAATYYCQQWSSNPFTFGQGTKLEIKAAEPKSSDKTHTCPPCPAPEAAGGPSVFLFPPKPKDTLMISRTPEVTCVVVSVSHEDPEVKFNWYVDGVEVHNAKTKPREEQYNSTYRVVSVLTVLHQDWLNGKEYKCKVSNKALPAPIEKTISKAKGQPREPQVYVLPPSRDELTKNQVSLLCLVKGFYPSDIAVEWESNGQPENNYLTWPPVLDSDGSFFLYSKLTVDKSRWQQGNVFSCSVMHEALHNHYTQKSLSLSPG
light: DIQLTQSPSSLSASVGDRATITCRASQSVDYEGDSYLNWYQQKPGKAPKLLIYDASNLVSGIPSRFSGSGSGTDFTLTISSVQPEDAATYYCQQSTEDPWTFGCGTKLEIKRTVAAPSVFIFPPSDEQLKSGTASVVCLLNNFYPREAKVQWKVDNALQSGNSQESVTEQDSKDSTYSLSSTLTLSKADYEKHKVYACEVTHQGLSSPVTKSFNRGEC
notes: also called variant 15194
For the molecule B4, the Kd in test [1] came to 349 nM.
